Test results reported in publication PMC9582512.
Where two headings read alike, the source gives them in different places.

Assays:
[1] = target: human recombinant biotinylated FcγRIIb (CD32b) (human) (UniProt P31994); experiment: BLI
[2] = target: human recombinant biotinylated FcγRIIb (CD32b) (human) (UniProt P31994); experiment: BLI; remark: listed apart in the source

Chain of human recombinant biotinylated FcγRIIb (CD32b) (human) (P31994 43-217): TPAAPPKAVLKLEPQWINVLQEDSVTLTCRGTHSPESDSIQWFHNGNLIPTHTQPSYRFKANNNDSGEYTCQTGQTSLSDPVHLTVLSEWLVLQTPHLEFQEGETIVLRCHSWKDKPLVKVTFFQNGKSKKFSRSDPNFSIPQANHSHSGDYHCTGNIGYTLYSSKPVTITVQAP
Chain of recombinant anti-Fel d 1 monoclonal antibody F127, human IgG4 format (P01861 whole entry, looked up): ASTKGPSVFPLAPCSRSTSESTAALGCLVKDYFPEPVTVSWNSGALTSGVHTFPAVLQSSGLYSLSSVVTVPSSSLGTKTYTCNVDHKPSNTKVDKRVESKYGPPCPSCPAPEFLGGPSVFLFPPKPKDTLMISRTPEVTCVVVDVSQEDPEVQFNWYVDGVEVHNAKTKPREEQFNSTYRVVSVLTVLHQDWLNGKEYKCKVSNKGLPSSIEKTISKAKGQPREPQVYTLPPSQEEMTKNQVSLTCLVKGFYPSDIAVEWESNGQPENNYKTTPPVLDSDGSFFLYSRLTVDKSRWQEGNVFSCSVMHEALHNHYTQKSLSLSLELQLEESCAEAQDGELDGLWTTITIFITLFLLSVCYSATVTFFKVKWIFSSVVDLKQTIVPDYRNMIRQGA
Chain of recombinant anti-Fel d 1 monoclonal antibody A044, human IgG4 format (P01861 whole entry, looked up): as above
Chain of native human IgG4 (P01861 whole entry, looked up): as above
Chain of recombinant anti-Fel d 1 monoclonal antibody G078, human IgG4 format (P01861 whole entry, looked up): as above

Substance | Kd [1] | koff [1] | koff [2]
native human IgG4 (from UniProt P01861) | 31 nM | 0.002 s⁻¹ | –
recombinant anti-Fel d 1 monoclonal antibody A044, human IgG1 format (from UniProt P01857) | 18 nM | – | –
recombinant anti-Fel d 1 monoclonal antibody A044, human IgG4 format (from UniProt P01861) | 18 nM | 0.00081 s⁻¹ | –
recombinant anti-Fel d 1 monoclonal antibody F127, human IgG1 format (from UniProt P01857) | 27 nM | – | –
recombinant anti-Fel d 1 monoclonal antibody F127, human IgG4 format (from UniProt P01861) | 27 nM | 0.0014 s⁻¹ | 0.00126 s⁻¹
recombinant anti-Fel d 1 monoclonal antibody G078, human IgG4 format (from UniProt P01861) | 34 nM | 0.0016 s⁻¹ | –
